Reference: US6254870, “Thrombopoietin: IL-3 fusion protein” (G. D. Searle & Co., dated 2001)

Columns and labels:
human c-mpl-R [1] = molecular target: T1, human c-mpl-R (human, UniProt P40238); assay: cell-based or functional assay
human c-mpl-R [2] = molecular target: T1, human c-mpl-R; assay: cell-based or functional assay; remark: listed apart in the source

B1: 1-153 Δ112-115 c-mpl ligand (pMON26450) (ligand)
chain: SPAPPACDLRVLSKLLRDSHVLHSRLSQCPEVHPLPTPVLLPAVDFSLGEWKTQMEETKAQDILGAVTLLLEGVMAARGQLGPTCLSSLLGQLSGQVRLLLGALQSLLGTQGRTTAHKDPNAIFLSFQHLLRGKVRFLMLVGGSTLCVR
Human c-mpl-R [1]
  TF1 Proliferation Assay: total counts tritiated thymidine incorporation, 10% supernatants: 60800 total counts
Human c-mpl-R [2]
  Bone Marrow Proliferation Assay: Cells/Well after 10 Day Culture of CD34+ enriched cells: < 500 cells/well

B2: 1-153 c-mpl ligand (pMON26448) (ligand)
chain: SPAPPACDLRVLSKLLRDSHVLHSRLSQCPEVHPLPTPVLLPAVDFSLGEWKTQMEETKAQDILGAVTLLLEGVMAARGQLGPTCLSSLLGQLSGQVRLLLGALQSLLGTQLPPQGRTTAHKDPNAIFLSFQHLLRGKVRFLMLVGGSTLCVR
Human c-mpl-R [1]
  TF1 Proliferation Assay: total counts tritiated thymidine incorporation, 10% supernatants: 115000 total counts
Human c-mpl-R [2]
  Bone Marrow Proliferation Assay: Cells/Well after 10 Day Culture of CD34+ enriched cells: 22500 cells/well

B3: 1-332 c-mpl ligand P(46)L, W(200)R (pMON26451-4) (ligand)
chain: SPAPPACDLRVLSKLLRDSHVLHSRLSQCPEVHPLPTPVLLPAVDLSLGEWKTQMEETKAQDILGAVTLLLEGVMAARGQLGPTCLSSLLGQLSGQVRLLLGALQSLLGTQLPPQGRTTAHKDPNAIFLSFQHLLRGKVRFLMLVGGSTLCVRRAPPTTAVPSRTSLVLTLNELPNRTSGLLETNFTASARTTGSGLLKRQQGFRAKIPGLLNQTSRSLDQIPGYLNRIHELLNGTRGLFPGPSRRTLGAPDISSGTSDTGSLPPNLQPGYSPSPTHPPTPLLPDPSAPTPTPTSPLLNTSYTHSQNLSQEG
Human c-mpl-R [1]
  TF1 Proliferation Assay: total counts tritiated thymidine incorporation, 10% supernatants: 122000 total counts
Human c-mpl-R [2]
  Bone Marrow Proliferation Assay: Cells/Well after 10 Day Culture of CD34+ enriched cells: 16000 cells/well

B4: 1-332 Δ112-115 c-mpl ligand (pMON26451-3) (ligand)
chain: SPAPPACDLRVLSKLLRDSHVLHSRLSQCPEVHPLPTPVLLPAVDFSLGEWKTQMEETKAQDILGAVTLLLEGVMAARGQLGPTCLSSLLGQLSGQVRLLLGALQSLLGTQGRTTAHKDPNAIFLSFQHLLRGKVRFLMLVGGSTLCVRRAPPTTAVPSRTSLVLTLNELPNRTSGLLETNFTASARTTGSGLLKWQQGFRAKIPGLLNQTSRSLDQIPGYLNRIHELLNGTRGLFPGPSRRTLGAPDISSGTSDTGSLPPNLQPGYSPSPTHPPTGQYTLFPLPPTLPTPVVQLHPLLPDPSAPTPTPTSPLLNTSYTHSQNLSQEG
Human c-mpl-R [1]
  TF1 Proliferation Assay: total counts tritiated thymidine incorporation, 10% supernatants: 35600 total counts
Human c-mpl-R [2]
  Bone Marrow Proliferation Assay: Cells/Well after 10 Day Culture of CD34+ enriched cells: < 500 cells/well
